Assay results: US8008547B2, “Glyphosate-N-acetyltransferase (GAT) genes” (E.I. duPont de Nemours, priority 2000, dated 2011)

Experiment: Standard protocol for determination of kcat and KM (continuous spectrophotometric assay, Acetyl CoA hydrolysis at 235 nm)
Assay type: biochemical
Settings: purified protein, about 23° C., 0.2 mM acetyl CoA; for Kcat: 20 mM HEPES pH 6.8, 10% ethylene glycol; for Km: pH 6.8, glyphosate 0.125 to 10 mM
Method in brief: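 KM from initial rates over 0.125–10 mM glyphosate, fitted by Lineweaver-Burke transformation of Michaelis-Menten; kcat/KM computed as kcat divided by KM. Continuous spectrophotometric read of acetyl-CoA hydrolysis at 235 nm.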

Row | Molecule | Kcat [s⁻¹] | Km [µM]
1 | SEQ ID NO: 471: GAT polypeptide (protein, 1_2C4, GAT polypeptide) MLEVKPINAEETYELRHKILRPNQPIEACMYETDLLRGSFHLGGFYRGQLISIASFHQAEHSDLQGQKQYQLRGMATLEGYREQKAGSTLIKHAEELLRKKGADLLWCNARTTAAGYYKKLGFSEQGEVFDTPPVGPHILMYKKIT | 3.22 | 800
2 | SEQ ID NO: 477: GAT polypeptide (protein, 1_3D6, GAT polypeptide) MIEVKPINAEDTYELRHKILRPNQPIEACMYESDLLQGSFHLGGFYRGQLISIASFHQAEHSDLQGQKQYQLRGMATLEGFREQKAGSTLIKHAEEILRKKGADLLWCNARTSAAGYYKKLGFSEHGEIFDTPPAGPHILMYKKLT | 3.77 | 3500
3 | SEQ ID NO: 480: GAT polypeptide (protein, 1_4C5, GAT polypeptide) MIEVKPINAEDTYELRHKILRPNQPIEACMYESDLLRGSFHLGGFYRGKLISIASFHKAEHSDLEGQNQYQLRGMATLEGYREQKAGSTLIRHAEEILRKRGADMLWCNARTSASGYYKRLGFSEHGEIFDTPPVGPHILMYKRLT | 4.23 | 930
4 | SEQ ID NO: 481: GAT polypeptide (protein, 1_4D6, GAT polypeptide) MLEVKPINAEDTYELRHRILRPNQPIEACMYETDLLRGSFHLGGFYRGQLISIASFHKAEHSDLEGQKQYQLRGMATLEGYREQKAGSTLIRHAEQILRKRGADMLWCNARTSAAGYYKRLGFSEQGEVFETPPVGPHILMYKRLT | 2.28 | 1400
5 | SEQ ID NO: 479: GAT polypeptide (protein, 1_3H2, GAT polypeptide) MIEVKPINAEDTYELRHRILRPNQPIEACMYETDLLRGAFHLGGYYRGQLISIASFHKAEHSELQGQKQYQLRGMATLEGYREQKAGSTLIKHAEQLLREKGADMLWCNARTSAAGYYKRLGFSEQGEVFDTPPVGPHILMYKKLT | 2.13 | 700
6 | SEQ ID NO: 475: GAT polypeptide (protein, 1_2H8, GAT polypeptide) MIEVKPINAEETYELRHKILRPNQPLEACMYETDLLRGAFHLGGFYRGKLISIASFHQADHSELQGQKQYQLRGMATLEGYREQKAGSTLIRHAEQILRKRGADLLWCNARTSAAGYYKKLGFSEHGEIFETPPVGPHILMYKRLT | 2.35 | 480
7 | SEQ ID NO: 472: GAT polypeptide (protein, 1_2D2, GAT polypeptide) MIEVKPINAEDTYELRHKILRPNQPLEACMYESDLLRSAFHLGGFYRGKLISIASFHKAEHSELQGQKQYQLRGMATLEGYRDQKAGSSLIRHAEEILRKRGADMLWCNARTSAAGYYKRLGFSEQGEVFDTPPVGPHILMYKRIT | 2.07 | 1200
8 | SEQ ID NO: 466: GAT polypeptide (protein, 1_1H1, GAT polypeptide) MIEVKPINAEETYELRHKILRPNQPIEACMYESDLLRGSFHLGGFYRGQLISIASFHKAEHSELQGQKQYQLRGMATLEGFREQKAGSSLIRHAEEILRNKGADLLWCNARTTASGYYKRLGFSEHGEVFETPPVGPHILMYKRIT | 4.85 | 1800
9 | SEQ ID NO: 483: GAT polypeptide (protein, 1_5H5, GAT polypeptide) MLEVKPINAEETYELRHKILRPNQPLEACMYESDLLRGSFHLGGYYRGQLISIASFHQAEHSELEGQKQYQLRGMATLEGFREQKAGSTLIKHAEQILRKRGADMLWCNARTSAAGYYKKLGFSEHGEIFDTPPVGPHILMYKKLT | 3.57 | 510
10 | SEQ ID NO: 277: GAT polypeptide (protein, 10_2B8, GAT polypeptide) MIEVKPINAEDTYEIRHRILRPNQPLEACKYETDLLGGTFHLGGYYRGKLISIASFHQAEHPELEGQKQYQLRGMATLEEYREQKAGSTLIRHAEELLRKKGADLLWCNARTSASGYYKKLGFSEQGEVYDTPPVGPHILMYKKLT | 1.807 | 1100
11 | SEQ ID NO: 278: GAT polypeptide (protein, 10_2C7, GAT polypeptide) MIEVKPINAEDTYEIRHRILRPNQPLEACKYETDLLRGAFHLGGYYRGKLISIASFHQAEHPELEGQKQYQLRGMATLEGYREQKAGSTLIRHAEELLRKKGADLLWCNARTSASGYYKKLGFSEQGEVYDTPPVGPHILMYKKLT | 2.25 | 1400
12 | SEQ ID NO: 467: GAT polypeptide (protein, 1_1H2, GAT polypeptide) MIEVKPINAEDTYELRHRILRPNQPLEACMYESDLLRGSFHLGGFYRGKLISIASFHQAEHSELEGQKQYQLRGMATLEGFREQKAGSSLIRHAEEILRKRGADLLWCNARTTAAGYYKKLGFSEQGEIFDTPPVGPHILMYKRIT | 2.73 | 440
13 | SEQ ID NO: 470: GAT polypeptide (protein, 1_2B6, GAT polypeptide) MIEVKPINAEETYELRHKILRPNQPLEACMYETDLLRGSFHLGGFYRGKLISIASFHQAEHSELEGQKQYQLRGMATLEGFRDQKAGSSLIKHAEEILRKRGADLLWCNARTSASGYYKKLGFSEQGEIFETPPVGPHILMYKRLT | 2.3 | 580
14 | SEQ ID NO: 469: GAT polypeptide (protein, 1_2A12, GAT polypeptide) MIEVKPINAEDTYELRHRILRPNQPIEACMYESDLLRGSFHLGGFYRGKLISIASFHQAEQSELEGQKQYQLRGMATLEGYRDQKAGSTLIKHAEEILRKKGADLLWCNARTSAAGYYKRLGFSEQGEIFDTPPVGPHILMYKRLT | 3.82 | 1300
15 | SEQ ID NO: 474: GAT polypeptide (protein, 1_2F8, GAT polypeptide) MLEVKPINAEDTYELRHRILRPNQPLEACMYETDLLRGSFHLGGFYRGKLISIASFHQAEHSELEGQKQYQLRGMATLEGYRDQKAGSSLIRHAEEILRKRGADMLWCNARTTAAGYYKKLGFSEQGEIYDTPPVGPHILMYKKLT | 2.68 | 1900
16 | SEQ ID NO: 468: GAT polypeptide (protein, 1_1H5, GAT polypeptide) MIEVKPINAEDTYEIRHRILRPNQPLEACMYESDLLRGSFHLGGFYRGKLISIASFHQAEHSDLEGQKQYQLRGMATLEGYRDQKAGSSLIRHAEQILRKRGADLLWCNARTTAAGYYKRLGFSEQGEVFDTPPVGPHILMYKKLT | 1.57 | 1500
17 | SEQ ID NO: 464: GAT polypeptide (protein, 11_3D6, GAT polypeptide) MIEVKPINAEDTYELRHRILRPNQPIEVCMYETDLLRGAFHLGGFYRGKLISIASFHQAEHSDLQGQKQYQLRGMATLEGYREQKAGSSLIKHAEQILRKRGADLLWCNARTSASGYYKKLGFSEQGEVFDTPPVGPHILMYKRLT | 0.922 | 
18 | SEQ ID NO: 465: GAT polypeptide (protein, 1_1G12, GAT polypeptide) MLEVKPINAEDTYELRHRILRPNQPIEVCMYETDLLRGAFHLGGFYGGKLISIASFHQAEHSELQGQKQYQLRGMATLEGYRDQKAGSSLIKHAEEILRKRGADLLWCNARTSASGYYKKLGFSEQGEVFETPPVGPHILMYKRLT | 0.9747 | 
19 | SEQ ID NO: 476: GAT polypeptide (protein, 1_3A2, GAT polypeptide) MIEVKPINAEDTYELRHRILRPNQPIEACMYESDLLRGAFHLGGFYRGKLISIASFHQAEHSDLQGQKQYQLRGMATLEGYREQKAGSSLIRHAEEILRKKGADMLWCNARTTAAGYYKRLGFSEQGEVFDTPPVGPHILMYKRIT | 3.02 | 800
20 | SEQ ID NO: 482: GAT polypeptide (protein, 1_4H1, GAT polypeptide) MIEVKPINAEDTYELRHRILRPNQPLEACMYETDLLRGSFHLGGFYRGKLISIASFHQAEHSDLQGQKQYQLRGMATLEGYREQKAGSTLIRHAEQLLRKRGADLLWCNARTSASGYYKRLGFSEHGEVFDTPPVGPHILMYKRLT | 3.93 | 1200
21 | SEQ ID NO: 473: GAT polypeptide (protein, 1_2D4, GAT polypeptide) MIEVKPINAEDTYELRHRILRPNQPIEACMYESDLLRGSFHLGGFYRGKLISIASFHQAEHSDLQGQKQYQLRGMATLEGYREQKAGSSLIKHAEQLLRKKGADMLWCNARTSAAGYYKRLGFSEHGEIFETPPVGPHILMYKRIT | 3.03 | 1200
22 | SEQ ID NO: 484: GAT polypeptide (protein, 1_6F12, GAT polypeptide) MIEVKPINAEETYELRHRILRPNQPIEACMYESDLLRGSFHLGGFYRGKLISIASFHQAEHSDLEGQKQYQLRGMATLEGYRDQKAGSTLIKHAEELLRKRGADMLWCNARTSAAGYYKRLGFSEHGEIYETPPVGPHILMYKKIT | 3.48 | 14700
23 | SEQ ID NO: 478: GAT polypeptide (protein, 1_3F3, GAT polypeptide) MIEVKPINAEETYELRQRILRPNQPIEACMYESDLLRGSFHLGGFYRGQLISIASFHQAEHSELQGQKQYQLRGMATLEGYREQKAGSTLIKHAEEILRKKGADLLWCNARTSAAGYYKRLGFSEHGEIFDTPPVGPHILMYKRIT | 2.78 | 1500
